The nature of the data set: label from the status in PepcDB records.
Regarding “MKKFLSFISFATIVSLVLSVFAKPYTEILRFKTTQQIAPRTYYEKYELLTDEGFVDINCIKLDLIDGGFDFDVLKSKVANTGDFVYNMVSSQIDKNPIAAINANFFYTNTKTDYNKIWPIGISVSGGKILSSPNNKQNTFPAFVYTTSNEILFDYINGLLYKLVNLDSGYEFKIAHVNKFTGDLTYPILFTGDYVQKTIGNKYKGIVELIIKDGIIKDIREEKQTVALDKNEYLLVATGNYAKNLKANFKVGDKVSLKIDLSIPLEKIKAAASGNTFLLKDGKIPSFTHEIAGRHPRSAIGIDKTGRYLYLVAVDGRNGKSIGLSQGELASFLQSIDVWTAINLDGGYSTQLIAKDNDGKFKAFYNIGETRKVFDSIAAFYKYRDDKIATFYIDCPDRVFAGEEYPIKVYAKDRFYNTITYDAVYLKVYQDAYEIDIKDGTFIPYKDGVVTISCVYEDVYQKAFAQKKISVYKPEILTTNKKQLYLLPGESARLRFYIKDKLGHFKEIDPRKVQAEKNPAFEFKDGSFIAKSNFRGFVTFSYKDLKCSIPVGIGETLQLLRSFDYLALSWPKGVSMFLSSKNKTQGKYSNKVYFSVSSTKGKSFKLNFKTPVDLTNINKISFDLCAKNVKVYLGFKMPNGTQKEVEIPQSKSDNFKSYSLNVESYKTLDYILLIPQKTQGYIWIDNLKGNVVNLPPVEAINQYVAKFDSKLAKSSVILLTKSFESLPSDTKKKVESNLGSYLKCYNLEKGNPPYEKNEKFNIVFLRTKSGSILDFSFYQWIRIKNLSAEKKPLIVVLDIPFESLKQNEKDILIRLLKSRKAPSMIICTTSDYTRVERYDTLYIGYASSNDLLAKSSTKSVNLACDVEKGYIYLARGY”, the protein production entry is reported as “failed”.

Regarding “MQLSGRSSSGLGRAGQLLRRPEVLAFLPALSLLAYWLGGERALVFVALGLPLFYATVGAFRPAAPSVTPDGLALRPQVIASLDRVLQDRESTGRTTACLVLQFDGMDKLLDRHGRATQSEVLARCCDRLCSTLREGDTVARLEGGGLAVALHPVRRLDLQSVVLLAGRLQTAIAAPISVEGTRIHVTCSIGFCLAERTPAPTGRALLDAAQMAADEASRNGPGAVRAYALGMSRNRADRDADRGLLETALDTGQFTGWFQPQIRTEDGAIGGFEVLSRWQHPERGLLLPQDFLPAIERAGLSERLGEVMLFQALTALRHWDRAGLCVPCVAVNFSATDLRNPRLVDRLKWELDRFELTPARLSVEILETVVAEGASDVVVHNIAGLSACGFGVDLDDFGTGHASITTIRRFALRRLKIDRSFVTRADSDAAQRTMLAAIISMARQLGLETLAEGVETPGELATLTALGCGYLQGYAIARPMPLSDATAWLENRRVRLPLAARCATPGS”, the protein production result is on record as “failed”.

“MRMGLKADSWIKKMSLEHGMISPFCEKQVGKNVISYGLSSYGYDIRVGSEFMLFDNKNALIDPKNFDPNNATKIDASKEGYFILPANAFALAHTIEYFKMPKDTLAICLGKSTYARCGIIVNVTPFEPEFEGYITIEISNTTNLPAKVYANEGIAQVVFLQGDEMCEQSYKDRGGKYQGQVGITLPKILK”: the protein production result was “failed”.

Take “MNQSLSPQQSPGFLFIAVSMITCLILLINVSFKIILLGGLVFAINSLICPLIAALFLFALRNCTFKEQRHLLNICLMTLYMFCIGVYVLVNLPAAEYMHDNPAYQVIFEEIPKKFFATTIAFALSFYLPHLLFCTKNDRVLSTPKQCVLLALLGGVSFFCLDFYLLFSAPHAHSFKQIFIDSFMISSLLLLIIGVVYLTFLLNDKQHKGKALIETTELTLFPIYQYLICFAVTVMLVCLACEYRIIAINKDLVLSASCIFFPITIIISSIVGELWGYQANLKLALALLAAQFIFDMLLMGSVALPSPPFFNLNPFYHYIMPRRLSAASLSLFVTFLGNAMLLHYLKYSKWKINRSLRILIANISVNSLLCLVDYSLLYGGIYPYEQIINLAVSVWQYKLLTALIALPVILWMCKILERNYSLVVQTERN”: the protein production entry is reported as “failed”.

“QGSVSTNLQEKGLVVSIVDTLMFDTGRAEVKPDFQKKLVEIGEILKTIDNYIRIEGHTDNTPISNSQYASNIELGSARSNNVEHLFIDVSKIPVTQMYTVSYADTRPVADNNSEAGKARNRRVDIVILNSK”: the protein production result is given as “failed”.

For “MSLANKPLAKALETISGIPITPFRKSDGSIDWHHYKETVDRIVDNGIDVIVPCGNTSEFYALSLEEAKEEVRRTVEYVHGRALVVAGIGYATSTAIELGNAAKAAGADAVMIHMPIHPYVTAGGVYAYFRDIIEALDFPSLVYFKDPEISDRVLVDLAPLQNLVGVKYAINDLPRFAKVVRSIPEEHQIAWICGTAEKWAPFFWHAGAKGFTSGLVNLLPQKAVEMLEALRNNDNDAVWRIWEDIVPFEDLRGKYNQGNNVVVIKEAMEMLRQNAGVTRAPVNELSNEDKQLVTELLSSWKLLQPTKGEGHHHHHH”, the protein production entry was “not failed”.

For the sequence “MRYADRVAGISWETIEEVRRRLKERPALHFIAGEFVPSESGETFPSLDPATNEVLGVAARGGEREVDRAAKAAHEAFQRWSRTKAKERKRYLLRIAELIEKHADELAVMECLDAGQVLRIVRAQVARAAENFAFYAEYAEHAMEDRTFPVDRDWLYYTVRVPAGPVGIITPWNAPLMLSTWRIAPALAFGNTVVLKPAEWSPFTATKLAEILKEADLPPGVFNLVQGFGEEAGAALVAHPLVPLLTLTGETETGKIVMRNAADHLKRLSPELGGKSPALVFADADLERALDAVVFQIFSFNGERCTASSRLLVEEKIFEDFVGKVVERARAIRVGHPLDPETEVGPLIHPEHLQRVLGYVEAGKREGARLLVGGERAKTSFRGEDLSRGNYLLPTVFVGENHMKIAQEEIFGPVLVAIPFKDEEEALRKANDTKYGLAAYVFTRDLERAHRLALELEAGMVYLNSHNVRHLPTPFGGVKGSGDRREGGTYALDFYTDLKTIALPLRPPHVPKFGK”, the protein production result is given as “not failed”.

As for “MKRKTLLMAALMGGCSLQGMAQQITPKDVAGDKEYNRVCREYELKGGDSMELLQAYLDKYPDSRHKNRVLSLIASAYFMEGKYKEAIALFRSCDLEALPDKERDDCAMRLATSYLKEDNLREAAVWFTLLKEVSPLYQDDAVYNLAYIDYVEKRYDKALKSFQSLQNDAVYAALVPYYIGEIYLVKGNYQQARTVAKAYLEQYPAKKDVPQMERIWGEACFGLNDYQAAIPPLERYRESVSHPQRKPLYELGMSYYYTGVYSKAAATLGEMASVHDALSQNAYLHMGLAYLNLKERNRARMAFEQAANFSFDPKVKEQALYNYALCIHETSYSPFAESVTVFERFLNEFPNSPYTERVNDYLIEVYMNTRSYEAALKSIAKIEHPGTRIMEAKQKILFRLGTQAFANARFQEALEFFNQSLAVGQYNQATKADAYFWRGESNYRLDRFPQAGNDYRLYLEFATSKNGQEYGLALYNLGYTYFKQKNYGNAGTWFTRFVDRGSINERTMQADAYNRIGDCNFYDRRFEQARQDYARAVEIDPSLGDYSLYQEAFVRGLQRDYNGKVQTLNRLISDYPESQYMDDALYEQGRAFVQMEDNANAIARFNILVKKFPESNVARRAANEIGLLYYQDDKYPEAIQAYKQVIAGYPGSEEARLAQRDLKSIYIDLNKVDEYANFASTIPGGANFDVNERDSLTYVAAERVYMRGEVAEARNSFTRYLQTFPEGAFSLNANYYIGLIDYNQKAYESAARHLDKVLEYPNNKYSEDAMLMGAEMAYTAKDYEKALHIYKQLKDKAASMERRRLAKTGMLRSAHMLGNEEEIIFAATDLLADTKLAPELSNEAHYYRAKAYLDAGKTDGAMEDLKVLAKDTRNVYGAEAKYKVAQIYFDGGQTDKAEQEVLNYIEVSTPHTYWLARSFVLLADVYMKLGRNLDAKQYLLSLKQNYQADDDIAGMIESRLEKLKTEN”, the protein production entry is “failed”.

For “MIFYFSGTGNSAWVARQLAEGQNEELLSIAMEIDRNKAYKLKEGEKVGFVFPVYAWGPPKIVLRFIHQLKLDKPGYLFFVCTCGDDTGRTAQIFSSAVTRKGWQCVAGYSVTMPNTYVSLPGFDVDDKDIETQKVQNAVARVRFINEEITSRAQMKQYNCHEGALPFTKSYLLRPLFNAFLMSPKPFHTTEACIGCKKCEKVCPVGNITVTDRPVWGGNCTQCLACYHVCPVHAVEYGKMTGKKGQYKGRLLKDL”, the protein production result is “failed”.

In the case of “VDKINPDLRVHLRLDRGEAILSLDLSGHSLHQRGYRLQQGAAPLKENLAAAILIRAGWPRIAAEGGALADPMCGVGTFLVEAGMIAADIAPNIKRERWGFSAWLGHVPTLWRKLHDEALARAEAGLAKTPSWIRGYEADPRLIQPGRNNIERAGLSDWIKVYQGEVATFEPRPDQNQKGLVICNPPYGERLGDEASLLYLYQNLGERLRQACLNWEAAVFTGAPDLGKRMGIRSHKQYSFWNGALPCKLLLIKVTPDQF”, the protein production result is given as “failed”.

On to “MTINNDPMRDAIVDTAVELAAHTSWEAVRLYDIAARLAVSLDEIRLYFREKDELIDAWFDRADSRMLKEAESAGFLDLVASERIHHLIMIWLDALAVQRKVTRQMIMSKLEFGHIHIQIPAVMRVSRTVQWVREAAQRDATFMRRALEESTLTTIYLMTFFFWMRDESENSRHTRQFLKRHLTMAAWLGQKVYGKDPEKSTVPHKQQIPLQFD”, for which the protein production entry is “not failed”.

Consider “MGHHHHHHSHMSNPIQAEVLKRVAEVFDQHVPFHNLLGLDIKRYDIDGVEVAINMKPELIGNIHQQILHGGVTATVLDVVGGLTAFAGLVASRDDWTIEELQQRLQTLGTIDMRVDYLRPGRGQIFTGTGSVIRAGNRVSVCRMELHNEQGTHIAFGTGTYMVG”, for which the protein production result is on record as “not failed”.

As to “MILQNKTFDLNPNDIAGLELVCQTLRNRILEVVSANGGHLSSSLGAVELIVGMHALFDCQKNPFIFDTSHQAYAHKLLTGRFESFSTLRQFKGLSGFTKPSESAYDYFIAGHSSTSVSIGVGVAKAFCLKQALGMPIALLGDGSISAGIFYEALNELGDRKYPMIMILNDNEMSISTPIGALSKALSQLMKGPFYQSFRSKVKKILSTLPESVNYLASRFEESFKLITPGVFFEELGINYIGPINGHDLSAIIETLKLAKELKEPVLIHAQTLKGKGYKIAEGRYEKWHGVGPFDLDTGLSKKSKSAILSPTEAYSNTLLELAKKDEKIVGVTAAMPSGTGLDKLIDAYPLRFFDVAIAEQHALTSSSAMAKEGFKPFVSIYSTFLQRAYDSIVHDACISSLPIKLAIDRAGIVGEDGETHQGLLDVSYLRSIPNMVIFAPRDNETLKNAVRFANEHDSSPCAFRYPRGSFALKEGVFEPSGFVLGQSELLKKEGEILLIGYGNGVGRAHLVQLALKEKNIECALLDLRFLKPLDPNLSAIVAPYQKLYVFSDNYKLGGVASAILEFLSEQNILKPVKSFEIIDEFIMHGNTALVEKSLGLDTESLTDAILKDLGQER”, the protein production result was “failed”.

Regarding “MIILPKTLYEEMLNHCLNSLPIEACGLLGGVIEDEKRIVKKVYLLTNVDQSPEHFSMDPLEQFAAVKDMRKNGWVLLGNFHSHPTTPARPSEEDKRLAFDKSLSYLILSLMDEKNPVLKSFRIYESYVEEEEIQIILEHHHHHH”, the protein production result is “failed”.

As to “SAAATGPSFWLGNETLKVPLALFALNRQRLCERLRKNPAVQAGSIVVLQGGEETQRYCTDTGVLFRQESFFHWAFGVTEPGCYGVIDVDTGKSTLFVPRLPASHATWMGKIHSKEHFKEKYAVDDVQYVDEIASVLTSQKPSVLLTLRGVNTDSGSVCREASFDGISKFEVNNTILHPEIVECRVFKTDMELEVLRYTNKISSEAHREVMKAVKVGMKEYELESLFEHYCYSRGGMRHSSYTCICGSGENSAVLHYGHAGAPNDRTIQNGDMCLFDMGGEYYCFASDITCSFPANGKFTADQKAVYEAVLRSSRAVMGAMKPGVWWPDMHRLADRIHLEELAHMGILSGSVDAMVQAHLGAVFMPHGLGHFLGIDVHDVGGYPEGVERIDEPGLRSLRTARHLQPGMVLTVEPGIYFIDHLLDEALADPARASFLNREVLQRFRGFGGVRIEEDVVVTDSGIELLTCVPRTVEEIEACMAGCDKAFTPFSGPK”, the protein production entry is listed as “failed”.

In the case of “MGHHHHHHSHMAGPSNVPAFLTKLWTLVSDPDTDALICWSPSGNSFHVFDQGQFAKEVLPKYFKHNNMASFVRQLNMYGFRKVVHIEQGGLVKPERDDTEFQHPCFLRGQEQLLENIKRKVTSVS”, the protein production result is “not failed”.

The values above are taken from a protein production outcome set (Wang et al. 2014).
